Common to all, as to assay: SPR (BIACORE 3000), hGLP-1R/GST amine-coupled to CM5 chip, 1:1 Langmuir fit
For orientation: Surface plasmon resonance follows binding to a sensor surface in real time, without labels.

Test [1] deals with imidazoacetyl-exendin-4 (CA-exendin-4). Here is the method: (§1) The binding activity of the GLP-1 receptor and the insulinotropic peptide derivative with a modified N-terminal charge were measured using a surface plasmon resonance (SPR) apparatus (BIACORE 3000, GE Healthcare).
(§2) The GLP-1 receptor was expressed from CHO-DG44 cells in hGLP-1R/GST form. The expressed hGLP-1R/GST was immobilized to a CM5 chip by amine coupling. To the hGLP-1R/GST-immobilized CM5 chip, the insulinotropic peptide derivatives with a modified N-terminal charge were diluted by concentration and then added to determine the binding activity with the GLP-1 receptor.

Test [2] deals with DA-exendin-4-propyl-amide. Here is the method: as §1, §2
In test [3] the target is Native exendin-4 (exenatide: BYETTA). The procedure:
as §1, §2

The target in test [4] is desamino-histidyl-exendin-4 (DA-exendin-4). The procedure:
as §1, §2

Test [5] deals with beta-hydroxy imidazopropionyl-exendin-4 (HY-exendin-4). The procedure: as §1, §2

Among the data in patent US20170226175A1 (HANMI PHARM, published 2017) are Kd, koff and kon values, retold here.

What is called Kd is a measure of binding affinity in units of concentration. The koff is the rate constant with which the complex falls apart. Read a low koff as a long-lived complex. What is called kon is the rate constant with which the complex forms. Lower therefore signals slow association.

B1: hGLP-1R/GST (receptor)
chain: RPQGATVSLWETVQKWREYRRQCQRSLTEDPPPATDLFCNRTFDEYACWPDGEPGSFVNVSCPWYLPWASSVPQGHVYRFCTAEGLWLQKDNSSLPWRDLSECEESKRGERSSPEEQLLFLY
notes: Expressed from CHO-DG44 cells and immobilized on a CM5 chip by amine coupling; also called GLP-1 receptor; GLP-1 receptor in hGLP-1R/GST form; not shown: GST (glutathione S-transferase) fusion partner
For the molecule B1, the Kd in test [1] is 26.3 nM; in test [2], 32.6 nM; in test [3], 1.4 nM; in test [4], 32.2 nM; in test [5] it was 42.7 nM. Besides, the koff stood at 0.00315 s⁻¹ in test [1]; 0.00335 s⁻¹ in test [2]; 0.000526 s⁻¹ in test [3]; 0.00365 s⁻¹ in test [4]; 0.00383 s⁻¹ in test [5]. The association rate constant (kon) is 120000 M⁻¹ s⁻¹ in test [1]; 104000 M⁻¹ s⁻¹ in test [2]; 370000 M⁻¹ s⁻¹ in test [3]; 113000 M⁻¹ s⁻¹ in test [4]; 90000 M⁻¹ s⁻¹ in test [5].
